Data reported in patent US20040235717A1, “Suppression of androgen receptor transactivation through new pathways to ar and ar coactivators and repressors” (priority 2001, published 2004).
“Also recorded” adds a separate entry of the source.

Experiments:
AR transactivation [1] = assay: AR transactivation reporter assays in SW480.7 / SW480·C7 cells; format: cell-based; settings: for Effect on ARE reporter activity: SW480·C7 cells
Protocol: (§1) 37. […] (A) PC3-AR2, SW480·C7, and PC-3 cells were transiently co-transfected with either MMTV-CAT, PSA-CAT, 5XARE-CAT, or (TAT)2-CAT (3 μg), in the presence of AR, Smad3, Smad4 or Smad3/Smad4 as indicated. Each CAT activity is presented relative to the transactivation observed in the absence of Smad3. All values represent the mean±SD of three independent experiments.

AR transactivation [2] = settings: PC-3 and CV1 cells; Hayes et al.; cited from earlier work
[3] = system: wtAR, mtARt877a, PR, VDR, ER transactivation; assay: Steroid receptor transactivation with Smad3 in DU145 cells (wtAR, mtARt877a, PR, VDR, ER); format: cell-based, human
AR transactivation [4] = assay: AR transactivation with Smad3/Smad4, CAT reporters in PC3-AR2, PC-3 and LNCaP cells; format: cell-based, human
Protocol: 32. […] LNCaP cell were transfected with Smad3 or Smad4 expression vector instead of PC-3(AR)2 cells in experiments otherwise identical with those in A (B), PC-3(AR)2 cells stably transfected with AR were over-expressed with the indicated amounts of Smad3 or Smad4 or SRC-1. 3 μg of MMTV-CAT was used as a reporter plasmid in all experiments. All values represent the averages±SD of four independent experiments. […] PSA expression level was determined by Northern blotting. The probe was obtained from exon 1 of the PSA gene and labeled with [α-^32P] dCTP. A β-actin probe was used as a control for equivalent mRNA loading. (C, Table 1) The RNA samples from (A) were reverse transcribed to cDNAs and all of the samples were subjected to real-time CR using an ABI Prism 7700 Sequence Detection System (Perkin-Elmer Applied bio systems). PCR was performed using the SYBR Green PCR Core Reagents kit (Perkin-Elmer Applied Bio systems). PSA and β-actin forward, reverse primers concentrations were 2.5 μM. To reduce variability between replicates, PCR premixes which contained all reagents except for total RNA were prepared and aliquoted into 1.5 ml microfuge tubes. Specific PCR amplification products were detected by the fluorescent double-stranded DNA-binding dye SYBR Green core reagent kit. Experiments were performed with triplicates for each data point.
as §1
333. Human prostate cancer DU145 cells and PC-3 cells were maintained in Dulbecco's Minimum Essential Medium containing penicillin (25 U/ml), streptomycin (25 μg/ml), and 5% fetal calf serum. Transfections were performed using the calcium phosphate precipitation method and cells were harvested after 24 h for the chloramphenicol acetyltransferase (CAT) assay, as described previously (Kang, et al. (1999) J. Biol. Chem. 274, 8570-8576). The CAT activity was visualized and quantitated by STORM 840 (Molecular Dynamics). At least three independent experiments were carried out in each case. The SW480·C7 cells and PC-3(AR)2 cells are the gifts from Dr. Eric J. Stanbridge and Dr. T. J. Brown

PSA mRNA expression = PSA mRNA expression in LNCaP cells, Northern blot; format: cell-based

B1: Smad3: a downstream mediator of the TGF-β signaling pathway (protein)
chain: MSSILPFTPPIVKRLLGWKKGEQNGQEEKWCEKAVKSLVKKLKKTGQLDELEKAITTQNVNTKCITIPRSLDGRLQVSHRKGLPHVIYCRLWRWPDLHSHHELRAMELCEFAFNMKKDEVCVNPYHYQRVETPVLPPVLVPRHTEIPAEFPPLDDYSHSIPENTNFPAGIEPQSNIPETPPPGYLSEDGETSDHQMNHSMDAGSPNLSPNPMSPAHNNLDLQPVTYCEPAFWCSISYYELNQRVGETFHASQPSMTVDGFTDPSNSERFCLGLLSNVNRNAAVELTRRHIGRGVRLYYIGGEVFAECLSDSAIFVQSPNCNQRYGWHPATVCKIPPGCNLKIFNNQEFAALLAQSVNQGFEAVYQLTRMCTIRMSFVKGWGAEYRRQTVTSTPCWIELHLNGPLQWLDKVLTQMGSPSIRCSSVS
**Q.** What does the source list for B1?
**A.** Effect on ARE reporter activity (AR transactivation [1]; MMTV-ARE reporter): only enhance MMTV-ARE reporter activity; Effect on ARE reporter activity (AR transactivation [1]; PSA-ARE, 5X-ARE and TAT2-ARE reporters): some slight repression; Effect on ligand-dependent transactivation of AR (AR transactivation [1]; SW480.7 cells, MMTV-CAT): increased the ligand-dependent transactivation of AR; Effect on AR transactivation (AR transactivation [2]): suppress AR transactivation; Enhancement of AR transactivation compared to ARA70 [3]: relatively stronger enhancement effect; Enhancement of wtAR transactivation ([3]; 10 nM DHT): 3-4 fold; Effect on transactivation of steroid receptors ([3]; 10^−8 M cognate ligand): significantly enhance the transactivation of AR, the progesterone receptor, and VDR; Effect on androgen-activated AR transactivation (AR transactivation [4]; PC3-AR2, MMTV-CAT, 10^−8 M DHT): further enhanced; Effect on ARE reporters (MMTV, PSA, 5X-ARE, TAT2-ARE) (AR transactivation [4]; PC-3 cells): enhance all these reporters; Effect on PSA expression (PSA mRNA expression; absence of androgen): failed to induce PSA expression; Effect on androgen-induced PSA mRNA expression (PSA mRNA expression; presence of androgen): further enhance PSA expression; also recorded: further enhances DHT-induced PSA mRNA expression
